For experiment [1], the system named is tumor infiltrating lymphocytes (TIL) of CT26 (colorectal carcinoma) tumors. In words: Immune phenotyping of tumor infiltrating lymphocytes (TIL) by flow cytometry. It is filed as in vivo, BALB/C mice. Particulars: IP days 0, 3, 6; 300 mg ARC, 100 mg anti-PD-1; tumor collected day 7. The text has this: FIG. 6A to FIG. 6G show the results of immune phenotyping of the tumor infiltrating lymphocytes (TIL) in BALB/C mice harboring CT26 (colorectal carcinoma) tumor allografts treated with ARC (TIGIT-Fc-OX40L or TIGIT-Fc-LIGHT) alone or the combination with anti-PD-1 (clone RMP1-14) antibody. The fractions (expressed as percentages) of total CD8^+ cells (FIG. 6A), total Perforin CD8^+ cells (FIG. 6B), total IFNγ^+ CD8^+ cells (FIG. 6C), total AH1-tetramer CD8^+ cells (antigen-specific CD8^+ cells) (FIG. 6D), total CD4±cells (FIG. 6E), total NKP46^+ NK cells (FIG. 6F) and total IFNγ±(NKP46^+ NK) cells (FIG. 6G) in the indicated cell populations in the dissociated tumor tissue as determined by flow cytometry analyses.
BALB/C mice were inoculated with CT26 (colorectal carcinoma) tumors, and when starting tumor volumes reached 30-60 mm^3 (indicating day 0), treatment was begun. Mice were treated via intraperitoneal (IP) injection on days 0, 3, and 6 with […] of either ARC (TIGIT-Fc-OX40L or TIGIT-Fc-LIGHT) or the combination of each ARC with […] of anti-PD-1 (clone RMP1-14). On day 7, mice were euthanized, tumor tissue was collected and dissociated, and analyzed by flow cytometry and calculated as percent cell types. The total % of CD8+ T cells detected in the tumor are similar between treatment groups (FIG. 6A).
The immunodominant CD8+ T cell response against CT26 carcinoma cells is directed against a tumor/self-antigen, GP70423-431, also known as AH1. To evaluate the T cell response against CT26, total AH1-tetramer CD8^+ cells were quantitated.
Other relevant cell types, including total % of CD4+ T cells, NKP46^+ NK cells, including the total IFNγ±NKP46^+ NK cells in the tumors were also quantitated. […] The IFNγ±cells were quantitated among NKP46^+ NK cells.
Background: A flow cytometer gives signals particle by particle.

Experiment [2] relates to CT26 tumor. Nature of the experiment: In vivo anti-tumor activity of TIGIT-Fc-LIGHT chimeric protein and anti-PD1 antibody in mice challenged with CT26 tumor. On the set-up: species or system mouse. Particulars: monotherapy on days 1, 3, and 6, compared to vehicle only-treated mice. An excerpt: FIG. 5B is a Kaplan Meyer plot of survival and statistics of the CT26 tumor experiment of FIG. 5A. […] FIG. 5C and FIG. 5D includes data relevant to the graphs of FIG. 5A and FIG. 5B.

The subject of experiment [3] is tumors. In words: In vivo anti-tumor activity of TIGIT-Fc-OX40L chimeric protein and anti-CTLA-4 antibody in tumor-inoculated mice. How it is done:
The in vivo ability of combinations of the TIGIT-Fc-OX40L chimeric protein with anti-CTLA-4 antibodies (FIG. 3A to FIG. 3C) to target and treat tumors were determined.
Mice were inoculated with tumors and were treated with a vehicle, an antibody, the TIGIT-Fc-OX40L chimeric protein, or combinations of the TIGIT-Fc-OX40L chimeric protein and an anti-CTLA-4 antibody; in the combinations, the TIGIT-Fc-OX40L chimeric protein was administered before the antibody, the TIGIT-Fc-OX40L chimeric protein was administered after the antibody, or the TIGIT-Fc-OX40L chimeric protein was administered with the antibody. See, FIG. 3A for the dose schedules.
FIG. 3C includes data relevant to the graphs of FIG. 3A and FIG. 3B.

For experiment [4], the system named is tumors. Nature of the experiment: In vivo anti-tumor activity of TIGIT-Fc-OX40L chimeric protein and anti-PD-1 antibody in tumor-inoculated mice. The procedure: The in vivo ability of combinations of the TIGIT-Fc-OX40L chimeric protein with anti-PD-1 antibodies (FIG. 4A to FIG. 4D) to target and treat tumors were determined.
Mice were inoculated with tumors and were treated with a vehicle, an antibody, the TIGIT-Fc-OX40L chimeric protein, or combinations of the TIGIT-Fc-OX40L chimeric protein and an anti-PD-1 antibody; in the combinations, the TIGIT-Fc-OX40L chimeric protein was administered before the antibody, the TIGIT-Fc-OX40L chimeric protein was administered after the antibody, or the TIGIT-Fc-OX40L chimeric protein was administered with the antibody.
FIG. 4C and FIG. 4D include data relevant to the graphs of FIG. 4A and FIG. 4B.

Setting [5] is: administered on days 7, 9, and 11, compared to vehicle only-treated mice and to days 12, 14, 16 schedule.
Where [6] appears, read: administered on days 12, 14, and 16, compared to vehicle only-treated mice.
[7] abbreviates: compared to the dosing regimen-matched αCTLA antibody-treated mice.
[8] abbreviates: compared to the dosing regimen-matched αPD-1 antibody-treated mice.

B1: TIGIT-Fc-LIGHT: chimeric protein: extracellular domain of TIGIT, hinge-CH2-CH3 Fc linker, extracellular domain of LIGHT (SEQ ID NO: 61) (protein)
chain: MEWSWVFLFFLSVTTGVHSMMTGTIETTGNISAEKGGSIILQCHLSSTTAQVTQVNWEQQDQLLAICNADLGWHISPSFKDRVAPGPGLGLTLQSLTVNDTGEYFCIYHTYPDGTYTGRIFLEVLESSVAEHGARFQIPSKYGPPCPPCPAPEFLGGPSVFLFPPKPKDQLMISRTPEVTCVVVDVSQEDPEVQFNWYVDGVEVHNAKTKPREEQFNSTYRVVSVLTVLHQDWLSGKEYKCKVSSKGLPSSIEKTISNATGQPREPQVYTLPPSQEEMTKNQVSLTCLVKGFYPSDIAVEWESNGQPENNYKTTPPVLDSDGSFFLYSRLTVDKSRWQEGNVFSCSVLHEALHNHYTQKSLSLSLGKIEGRMDLQLHWRLGEMVTRLPDGPAGSWEQLIQERRSHEVNPAAHLTGANSSLTGSGGPLLWETQLGLAFLRGLSYHDGALVVTKAGYYYIYSKVQLGGVGCPLGLASTITHGLYKRTPRYPEELELLVSQQSPCGRATSSSRVWWDSSFLGGVVHLEAGEKVVVRVLDERLVRLRDGTRSYFGAFMV
As to B1, in experiment [1], the “total AH1-tetramer CD8+ cells among the total CD8+ cells” value was “increased”, the “total CD4+ cells among the total mononuclear cells” value is on record as “increased”, the “total IFNγ+ CD8+ cells among the total CD8+ cells” value is “increased” and the “total IFNγ+ cells among the total NKP46+ NK cells” value is “increased”. Moreover, in experiment [1], the “total NKP46+ NK cells among the total mononuclear cells” value is “increased” and the “total Perforin CD8+ cells among the total CD8+ cells” value is recorded as “increased”. Besides, in experiment [2], the survival result is “extended survival” and the tumor development result is listed as “slower tumor development”.

B2: TIGIT-Fc-OX40L: chimeric protein: extracellular domain of TIGIT, hinge-CH2-CH3 Fc linker, extracellular domain of OX40L (SEQ ID NO: 60) (protein)
chain: MMTGTIETTGNISAEKGGSIILQCHLSSTTAQVTQVNWEQQDQLLAICNADLGWHISPSFKDRVAPGPGLGLTLQSLTVNDTGEYFCIYHTYPDGTYTGRIFLEVLESSVAEHGARFQIPSKYGPPCPPCPAPEFLGGPSVFLFPPKPKDQLMISRTPEVTCVVVDVSQEDPEVQFNWYVDGVEVHNAKTKPREEQFNSTYRVVSVLTVLHQDWLSGKEYKCKVSSKGLPSSIEKTISNATGQPREPQVYTLPPSQEEMTKNQVSLTCLVKGFYPSDIAVEWESNGQPENNYKTTPPVLDSDGSFFLYSRLTVDKSRWQEGNVFSCSVLHEALHNHYTQKSLSLSLGKIEGRMDQVSHRYPRIQSIKVQFTEYKKEKGFILTSQKEDEIMKVQNNSVIINCDGFYLISLKGYFSQEVNISLHYQKDEEPLFQLKKVRSVNSLMVASLTYKDKVYLNVTTDNTSLDDFHVNGGELILIHQNPGEFCVL
Regarding B2, in experiment [1], the “total AH1-tetramer CD8+ cells among the total CD8+ cells” value is “increased”, the “total CD4+ cells among the total mononuclear cells” value is “increased”, the “total IFNγ+ CD8+ cells among the total CD8+ cells” value is “increased” and the “total IFNγ+ cells among the total NKP46+ NK cells” value was “increased”. Besides, in experiment [1], the “total NKP46+ NK cells among the total mononuclear cells” value is on record as “increased” and the “total Perforin CD8+ cells among the total CD8+ cells” value is “increased”. In experiment [3] (setting [5]), the survival entry is on record as “extended survival” and the tumor development result was “slower tumor development”. Besides, in experiment [3] (setting [6]), the survival result is “extended survival” and the tumor development result is on record as “slower tumor development”. Besides, in experiment [3] (setting [7]), the survival result is reported as “extended survival” and the tumor development result is “slower tumor development”. In experiment [4] (setting [5]), the survival result was “extended survival” and the tumor development entry was “slower tumor development”. Besides, in experiment [4] (setting [6]), the survival entry is reported as “extended survival” and the tumor development result is reported as “slower tumor development”. Besides, in experiment [4] (setting [8]), the survival entry is listed as “extended survival” and the tumor development entry is on record as “slower tumor development”.

The record behind these values is patent US20220185863A1, “COMBINATION THERAPIES” (Shattuck Labs, Inc., priority 2019, published 2022).
